From patent publication US11505586B2, “Interaction of Draxin and γ-netrins” (Max-Planck-Gesellschaft zur Foerderung der Wissenschaften …, priority 2014, dated 2022)

How the values were obtained:
[1] = system: Netrin1a/DCC; assay: AVEXIS based competition assay; format: binding, zebrafish; details: for inhibition of binding of Netrin1a to DCC: inhibitor added together with DCC prey, Netrin1a bait
Source text: (§1) The procedure of the competition assay is based on the AVEXIS assay. Netrin1 receptors were used as prey proteins together with 6×His ? tagged purified Draxin (potential antagonist), and probed against Netrin1a bait proteins. The indicated concentrations of the potential inhibitors have been added together with prey proteins. For the competition tests with purified Draxin the concentration of the Netrin receptor prey proteins has been adjusted to an identical threshold binding concentration.
We determined the concentration of ECD-hFc fusion proteins in tissue culture supernatants by ELISA, using the human IgG Fc fragment (Calbiochem) as a reference. Dilution series of the ECD-hFc containing supernatants have been incubated over night at 4° C. on 96 well Maxisorp plates (Nunc). After 3 PBS washes the plates were blocked with 0.5% BSA containing PBS (1 h). After additional 2 PBS washes and 1-hour incubation with an anti-human IgG (Fc specific) antibody fused to alkaline phosphatase (SIGMA) the plates have been washed 3 times with PBS. The detection has been carried out by addition of 50 μl/well of the AP substrate p-nitrophenylphosphate (SouthernBiotech). The substrate turnover has been determined by measuring the absorbance at 405 nm.
(§2) By using an AVEXIS-based competition assay (FIG. 6 A) we tested whether the binding of DraxinA to Netrin1a has an influence on Netrins ability to bind to Netrin receptors. First we confirmed that we reliably detected the binding of Netrin1a to Netrin receptors of the DCC/Neo1 and Unc5 families with the AVEXIS method. We also tested whether Draxin is able to bind to the corresponding Netrin receptors. […] This has also been confirmed by a recent publication (Haddick et al. 2014). In the competition assay the extracellular domains (ECDs) of Netrin receptors have been used as prey proteins together with purified full length DraxinA and probed for binding against Netrin1a bait proteins. […] The inhibition is specific for DraxinA.

[2] = system: endogenous netrins; assay: In situ detection of Draxin binding partners with affinity probe; design: species or system zebrafish
Method: A netrin binding fragment of Draxin (aa209-284) fused to the Fc region of human IgG (Draxinaa209-284-hFc) has been expressed in HEK293-6E cells and used as an affinity probe to detect binding partners in zebrafish embryos. Draxinaa209-284-hFc in situ staining has been done in whole mount wild type and netrin-1 knockdown zebrafish embryos. At 46 hpf wild type zebrafish embryos were dechorionated by for 2 hours at RT incubation in 0.1 mg/ml Pronase. At 48 hpf embryos were prefixed for 10 min at RT in 4% (w/v) paraformaldehyde (PFA) containing 1% Triton X-100 (v/v). After 3 washes (each 20 min) with PBS+1% Triton X-100 the embryos were blocked for 4 h at RT in PBS containing 0.2% BSA and 0.5% Triton X-100. Overnight incubation at 4° C. with HEK293-6E supernatant containing the Draxin-hFc fusion protein was followed by 3 short washes (10 min each) with PBST. Subsequently the embryos were post-fixed in 4% PFA (4 h at RT or overnight at 4° C.), rinsed shortly 3 times with PBST and incubated for 4 h at RT with an Alexa Fluor 568 goat anti human IgG antibody (Invitrogen, 1:250 dilution). After 3 washes (30 min each) in PBST the embryos were mounted in glycerol for visualization using a Zeiss LSM 510 microscope. […]

[3] = system: Netrin1a/Unc5b; assay: AVEXIS based competition assay; format: binding, zebrafish; details: purified protein with Unc5b prey, Netrin1a bait
Source text: as §1, §2

[4] = system: Netrin1a/Neo1; assay: AVEXIS based competition assay; format: binding, zebrafish; details: purified protein with Neo1 prey, Netrin1a bait
Source text: as §1, §2

[5] = system: RGMc/Neo1; assay: AVEXIS based competition assay; format: binding, zebrafish
[6] = system: Netrin1a; assay: AVEXIS extracellular protein-protein interaction screen; format: binding, zebrafish
Source text: To detect extracellular protein-protein interactions in a high-throughput manner we used the AVEXIS assay as described in Bushell et al. (Bushell et al., 2008) with minor modifications.
In brief: A zebrafish protein library enriched for mainly in neuronal tissues expressed secreted proteins and extracellular domains of cell surface proteins has been assembled. The library consists of prey and bait proteins. Preys are composed of the extracellular domain (ECD) of interest followed by a CD4 tag (rat Cd4d3+4) and a pentamerization domain derived from the rat Comp protein followed by β-lactamase. For the bait proteins the ECDs are fused to a CD4 tag and a biotinylation peptide. […] The proteins in the supernatants have been quantified and normalized.
The bait proteins have been immobilized on streptavidin coated 96 well microtiter plates (one bait/well) and incubated for 1 hour at room temperature. […] Then the absorbance at 486 nm of each well has been measured using a μQuant spectrophotometer (BIO-TEK Instruments, INC). […]
In the primary screen interactions were ‘called’ if the absorbance (at 486 nm) of a well after 1 h of incubation was ≥0.1 and 3 Sigma above the standard deviations of the mean of all wells. All interactions detected in the primary screen have been retested in a validation screen by using independently produced batches of proteins.

[7] = molecular target: T1, Netrin-1 (Homo sapiens, UniProt O95631); assay: AVEXIS pairwise binding screen, human proteins; details: both bait/prey orientations
T1 construct: made in house; host or cells: HEK293-6E (general AVEXIS method)
Source text: (§3) AVEXIS was used to test pairwise binding events in both bait/prey orientations between human DRAXIN, the derived 21 amino acid peptide, human Netrin family members, and two representative Netrin receptors (DCC, UNC5B). The Matn4-bait served as an internal prey-protein control and was used for normalization of the A486 nm values; conditioned medium (CM) serves as negative control; n=3.
(§4) To determine the binding specificity of DRAXIN/Netrin interactions, we carried out a pairwise binding screen between human DRAXIN and human Netrin family members. Except Netrin-5, we included all human Netrin family members consisting of two secreted γ-Netrins (Netrin-1 and Netrin-3) and one secreted (Netrin-4) and two GPI-linked β-Netrins (Netrin-G1 and Netrin-G2) in our binding study. Human DRAXIN and a 21 amino acid Netrin binding fragment derived thereof (SEQ ID NO.: 1) bound to Netrin-1 and Netrin-3 but not to human β-Netrin family members (FIG. 13).

[8] = molecular target: T2, Netrin-3 (Homo sapiens, UniProt O00634); assay: AVEXIS pairwise binding screen, human proteins; details: both bait/prey orientations
T2 construct: made in house; host or cells: HEK293-6E (general AVEXIS method)
T2 sequence (O00634 28-580): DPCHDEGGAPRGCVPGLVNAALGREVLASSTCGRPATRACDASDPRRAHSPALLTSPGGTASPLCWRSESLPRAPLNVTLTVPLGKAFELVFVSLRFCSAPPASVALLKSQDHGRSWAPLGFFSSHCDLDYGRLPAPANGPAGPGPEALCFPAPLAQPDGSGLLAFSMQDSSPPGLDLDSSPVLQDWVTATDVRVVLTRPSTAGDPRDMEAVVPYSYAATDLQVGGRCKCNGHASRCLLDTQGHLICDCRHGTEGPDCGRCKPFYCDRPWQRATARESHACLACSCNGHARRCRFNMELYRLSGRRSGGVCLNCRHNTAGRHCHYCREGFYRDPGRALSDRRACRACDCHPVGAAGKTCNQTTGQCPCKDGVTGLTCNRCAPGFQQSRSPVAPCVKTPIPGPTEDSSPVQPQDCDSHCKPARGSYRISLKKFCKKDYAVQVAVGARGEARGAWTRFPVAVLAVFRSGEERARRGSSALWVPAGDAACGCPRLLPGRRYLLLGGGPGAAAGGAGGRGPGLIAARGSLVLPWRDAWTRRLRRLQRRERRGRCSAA
Source text: as §3, §4

[9] = system: human β-Netrin family members; assay: AVEXIS pairwise binding screen, human proteins; details: Netrin-4, Netrin-G1, Netrin-G2
Source text: as §3, §4

B1: DraxinAΔaa231-252-hFc: DraxinA-hFc where the 21aa Netrin1 binding motif has been deleted (protein)
chain: SEISSDNFKQSLTPSTTTSKEHPETGLTGGRQQKRHWSGKERDSAGLFSQRHMDRLEDDGTSMEGLSPVRLEMGPGDTMKAEVHGEVRASAQMRQGSHPAEGELNRKGRRHSHRLLAEHRKHGGKKDKGRGKGDLSDPEPELDSLLKDLNAFEDGLNTSPPNYNSVPLNEVPSPLSPILVTTAIKGHPPTLPPASTKPQKSSQGRTQADSWPSNKRKDKRRSKNKSNGNTTTEAGIVEPCDHHLDCLSGSCCDLREFECKPHNRGLNNKCFDDCMCEEGLRCYAKFHRKRRVTRRRGRCVDPESVNSNQGAFITV
modifications: left off: a dimerising Fc or GST
inhibition of binding of Netrin1a to DCC [1]: not able to compete

B2: Draxinaa209-284-hFc: netrin binding fragment of Draxin (aa209-284) fused to the Fc region of human IgG, affinity probe (protein)
chain: GHPPTLPPASTKPQKSSQGRTQGEVMPTLDMTLFDWTDYEDMKPADSWPSNKRKDKRRSKNKSNGNTTTEAGIVEP
modifications: left off: a dimerising Fc or GST
in situ signal of bound affinity probe ([2]; 48 hpf netrin1a and netrin1b double-knockdown embryos): barely detectable
in situ signal of bound affinity probe ([2]; 48 hpf wild type embryos): only detect a signal in close proximity to the floor plate

B3: DraxinA: full-length zebrafish Draxin isoform A (SEQ ID NO.: 5), 360 amino acids; purified as His-tagged CD4d3+4 fusion (protein)
chain: MVAPGLCQLFILLLITLSHTLHSSEISSDNFKQSLTPSTTTSKEHPETGLTGGRQQKRHWSGKERDSAGLFSQRHMDRLEDDGTSMEGLSPVRLEMGPGDTMKAEVHGEVRASAQMRQGSHPAEGELNRKGRRHSHRLLAEHRKHGGKKDKGRGKGDLSDPEPELDSLLKDLNAFEDGLNTSPPNYNSVPLNEVPSPLSPILVTTAIKGHPPTLPPASTKPQKSSQGRTQGEVMPTLDMTLFDWTDYEDMKPADSWPSNKRKDKRRSKNKSNGNTTTEAGIVEPCDHHLDCLSGSCCDLREFECKPHNRGLNNKCFDDCMCEEGLRCYAKFHRKRRVTRRRGRCVDPESVNSNQGAFITV
modifications: His-tagged CD4d3+4 fusion; Danio rerio
notes: purified as His-tagged CD4d3+4 fusion
disruption of already formed DCC/Netrin1a complexes ([1]; Netrin1a-baits preincubated with DCC preys, then purified DraxinA added): can be disrupted
inhibition of binding of Netrin1a to DCC [1]: concentration dependent inhibition
inhibition of binding of Netrin1a to Unc5b [3]: concentration dependent inhibition
inhibition of binding of Netrin1a to Neo1 [4]: concentration dependent inhibition
inhibition of binding of RGMc to Neo1 [5]: not able to block
binding of prey protein to Netrin1a bait ([6]; pentameric prey, library of 171 bait proteins): specifically bound

B4: Human DRAXIN: human Draxin (SEQ ID NO.: 4) expressed as AVEXIS bait/prey protein (protein, listed as Homo sapiens)
chain: MAGPAIHTAPMLFLVLLLPLELSLAGALAPGTPARNLPENHIDLPGPALWTPQASHHRRRGPGKKEWGPGLPSQAQDGAVVTATRQASRLPEAEGLLPEQSPAGLLQDKDLLLGLALPYPEKENRPPGWERTRKRSREHKRRRDRLRLHQGRALVRGPSSLMKKAELSEAQVLDAAMEESSTSLAPTMFFLTTFEAAPATEESLILPVTSLRPQQAQPRSDGEVMPTLDMALFDWTDYEDLKPDGWPSAKKKEKHRGKLSSDGNETSPAEGEPCDHHQDCLPGTCCDLREHLCTPHNRGLNNKCFDDCMCVEGLRCYAKFHRNRRVTRRKGRCVEPETANGDQGSFINV
modifications: AVEXIS bait/prey tags
binding to Netrin-1 [7]: bound
binding to Netrin-3 [8]: bound
binding to human β-Netrin family members [9]: not
binding of human Draxin to zebrafish Netrin1a ([6]; cross-species, both bait-prey orientations): able to bind

B5: DraxinA-hFc: full-length DraxinA fused to human Fc (protein)
chain: SEISSDNFKQSLTPSTTTSKEHPETGLTGGRQQKRHWSGKERDSAGLFSQRHMDRLEDDGTSMEGLSPVRLEMGPGDTMKAEVHGEVRASAQMRQGSHPAEGELNRKGRRHSHRLLAEHRKHGGKKDKGRGKGDLSDPEPELDSLLKDLNAFEDGLNTSPPNYNSVPLNEVPSPLSPILVTTAIKGHPPTLPPASTKPQKSSQGRTQGEVMPTLDMTLFDWTDYEDMKPADSWPSNKRKDKRRSKNKSNGNTTTEAGIVEPCDHHLDCLSGSCCDLREFECKPHNRGLNNKCFDDCMCEEGLRCYAKFHRKRRVTRRRGRCVDPESVNSNQGAFITV
modifications: left off: a dimerising Fc or GST
inhibition of binding of Netrin1a to DCC [1]: able to outcompete
